Starred links: 1 amine or outer side, 2 acyl side, 3 side chain; linkers in the order of their positions; H or OH if unused. Non-standard residues stand in square brackets, D forms with d. Groups on a side chain read outwards from the residue. No end group written: not given here. *: point of attachment. dpeg = —[CO(CH2)O(CH2)2O(CH2)NH]— spacer, O=C(COCCOCN[*:1])[*:2]; C20 diacid = O=C(O)CCCCCCCCCCCCCCCCCCC(=O)*; C19 diacid = O=C(O)CCCCCCCCCCCCCCCCCC(=O)*; C18 diacid = O=C(O)CCCCCCCCCCCCCCCCC(=O)*; γGlu = O=C(O)[C@H](CCC(=O)[*:2])N[*:1]; hSer = N[C@@H](CCO)C(=O)O; αMeS = C[C@](N)(CO)C(=O)O
T1: NPY2R
T1 sequence (P49146 1-381, species assumed, looked up): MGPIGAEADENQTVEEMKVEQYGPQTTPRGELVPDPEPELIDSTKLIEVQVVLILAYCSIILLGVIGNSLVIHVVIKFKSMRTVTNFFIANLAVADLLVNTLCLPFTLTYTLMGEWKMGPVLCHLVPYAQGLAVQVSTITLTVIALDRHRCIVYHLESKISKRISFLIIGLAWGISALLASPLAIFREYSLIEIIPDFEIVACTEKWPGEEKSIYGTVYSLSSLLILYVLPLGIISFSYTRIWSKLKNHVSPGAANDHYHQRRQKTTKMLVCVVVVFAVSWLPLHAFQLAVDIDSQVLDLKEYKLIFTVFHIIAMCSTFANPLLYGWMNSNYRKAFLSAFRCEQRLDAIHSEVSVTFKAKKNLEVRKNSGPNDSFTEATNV

T2: NPY5R
T2 sequence (Q15761 1-445, species assumed, looked up): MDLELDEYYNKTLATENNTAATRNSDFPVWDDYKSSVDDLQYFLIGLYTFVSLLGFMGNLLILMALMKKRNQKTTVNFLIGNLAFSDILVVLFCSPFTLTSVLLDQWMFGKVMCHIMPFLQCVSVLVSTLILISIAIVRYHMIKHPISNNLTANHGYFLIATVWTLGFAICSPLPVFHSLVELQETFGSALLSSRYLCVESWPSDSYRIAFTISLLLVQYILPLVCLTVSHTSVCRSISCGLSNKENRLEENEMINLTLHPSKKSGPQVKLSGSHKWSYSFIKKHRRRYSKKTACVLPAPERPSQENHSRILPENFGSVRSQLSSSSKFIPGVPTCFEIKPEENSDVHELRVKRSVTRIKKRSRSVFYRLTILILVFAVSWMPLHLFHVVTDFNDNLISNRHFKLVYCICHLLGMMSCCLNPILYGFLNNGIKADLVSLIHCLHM


Experiments:
NPY2R = molecular target: T1, NPY2R; experiment: cell-based or functional assay
NPY5R = molecular target: T2, NPY5R; experiment: cell-based or functional assay

Row | NPY2R pEC50 (NPY2R) | NPY5R pEC50 (NPY5R) | Binder
1 | 10.5 -Log(EC50, M) | 8.8 -Log(EC50, M) | PKPEKPGKDASPKEWNRYYK([γGlu-γGlu-C20 diacid])DLRHYLNWLTRQRF-NH2 (N-terminus assumed; SMILES CC(C)C[C@H](NC(=O)[C@H](CC(=O)O)NC(=O)[C@H](CCCCNC(=O)CC[C@H](NC(=O)CC[C@H](NC(=O)CCCCCCCCCCCCCCCCCCC(=O)O)C(=O)O)C(=O)O)NC(=O)[C@H](Cc1ccc(O)cc1)NC(=O)[C@H](Cc1ccc(O)cc1)NC(=O)[C@H](CCCNC(=N)N)NC(=O)[C@H](CC(N)=O)NC(=O)[C@H](Cc1c[nH]c2ccccc12)NC(=O)[C@H](CCC(=O)O)NC(=O)[C@H](CCCCN)NC(=O)[C@@H]1CCCN1C(=O)[C@H](CO)NC(=O)[C@H](C)NC(=O)[C@H](CC(=O)O)NC(=O)[C@H](CCCCN)NC(=O)CNC(=O)[C@@H]1CCCN1C(=O)[C@H](CCCCN)NC(=O)[C@H](CCC(=O)O)NC(=O)[C@@H]1CCCN1C(=O)[C@H](CCCCN)NC(=O)[C@@H]1CCCN1)C(=O)N[C@@H](CCCNC(=N)N)C(=O)N[C@@H](Cc1c[nH]cn1)C(=O)N[C@@H](Cc1ccc(O)cc1)C(=O)N[C@@H](CC(C)C)C(=O)N[C@@H](CC(N)=O)C(=O)N[C@@H](Cc1c[nH]c2ccccc12)C(=O)N[C@@H](CC(C)C)C(=O)N[C@H](C(=O)N[C@@H](CCCNC(=N)N)C(=O)N[C@@H](CCC(N)=O)C(=O)N[C@@H](CCCNC(=N)N)C(=O)N[C@@H](Cc1ccccc1)C(N)=O)[C@@H](C)O) [Compound A28]
2 | 10.4 -Log(EC50, M) | 8.7 -Log(EC50, M) | PKPEAPGK([γGlu-γGlu-C20 diacid])DASPEEW[αMeS]RYYKDLRHYLNWLTRQRF-NH2 [Compound A31]
3 | 10.3 -Log(EC50, M) | 8.5 -Log(EC50, M) | PKPEAPGK([γGlu-γGlu-C20 diacid])DASPEEW[hSer]RYYKDLRHYLNWLTRQRF-NH2 [Compound A30]
4 | 10.9 -Log(EC50, M) | 9 -Log(EC50, M) | PKPEKPGEDASPKEWNRYYK([γGlu-γGlu-C20 diacid])DLRHYLNWLTRQRF-NH2 (N-terminus assumed; SMILES CC(C)C[C@H](NC(=O)[C@H](CC(=O)O)NC(=O)[C@H](CCCCNC(=O)CC[C@H](NC(=O)CC[C@H](NC(=O)CCCCCCCCCCCCCCCCCCC(=O)O)C(=O)O)C(=O)O)NC(=O)[C@H](Cc1ccc(O)cc1)NC(=O)[C@H](Cc1ccc(O)cc1)NC(=O)[C@H](CCCNC(=N)N)NC(=O)[C@H](CC(N)=O)NC(=O)[C@H](Cc1c[nH]c2ccccc12)NC(=O)[C@H](CCC(=O)O)NC(=O)[C@H](CCCCN)NC(=O)[C@@H]1CCCN1C(=O)[C@H](CO)NC(=O)[C@H](C)NC(=O)[C@H](CC(=O)O)NC(=O)[C@H](CCC(=O)O)NC(=O)CNC(=O)[C@@H]1CCCN1C(=O)[C@H](CCCCN)NC(=O)[C@H](CCC(=O)O)NC(=O)[C@@H]1CCCN1C(=O)[C@H](CCCCN)NC(=O)[C@@H]1CCCN1)C(=O)N[C@@H](CCCNC(=N)N)C(=O)N[C@@H](Cc1c[nH]cn1)C(=O)N[C@@H](Cc1ccc(O)cc1)C(=O)N[C@@H](CC(C)C)C(=O)N[C@@H](CC(N)=O)C(=O)N[C@@H](Cc1c[nH]c2ccccc12)C(=O)N[C@@H](CC(C)C)C(=O)N[C@H](C(=O)N[C@@H](CCCNC(=N)N)C(=O)N[C@@H](CCC(N)=O)C(=O)N[C@@H](CCCNC(=N)N)C(=O)N[C@@H](Cc1ccccc1)C(N)=O)[C@@H](C)O) [Compound A29]
5 | 10.7 -Log(EC50, M) | 8.9 -Log(EC50, M) | PKPEKPGK([γGlu-γGlu-C20 diacid])DASPKEWNRYYKDLRHYLNWLTRQRF-NH2 (N-terminus assumed; SMILES CC(C)C[C@H](NC(=O)[C@H](CC(=O)O)NC(=O)[C@H](CCCCN)NC(=O)[C@H](Cc1ccc(O)cc1)NC(=O)[C@H](Cc1ccc(O)cc1)NC(=O)[C@H](CCCNC(=N)N)NC(=O)[C@H](CC(N)=O)NC(=O)[C@H](Cc1c[nH]c2ccccc12)NC(=O)[C@H](CCC(=O)O)NC(=O)[C@H](CCCCN)NC(=O)[C@@H]1CCCN1C(=O)[C@H](CO)NC(=O)[C@H](C)NC(=O)[C@H](CC(=O)O)NC(=O)[C@H](CCCCNC(=O)CC[C@H](NC(=O)CC[C@H](NC(=O)CCCCCCCCCCCCCCCCCCC(=O)O)C(=O)O)C(=O)O)NC(=O)CNC(=O)[C@@H]1CCCN1C(=O)[C@H](CCCCN)NC(=O)[C@H](CCC(=O)O)NC(=O)[C@@H]1CCCN1C(=O)[C@H](CCCCN)NC(=O)[C@@H]1CCCN1)C(=O)N[C@@H](CCCNC(=N)N)C(=O)N[C@@H](Cc1c[nH]cn1)C(=O)N[C@@H](Cc1ccc(O)cc1)C(=O)N[C@@H](CC(C)C)C(=O)N[C@@H](CC(N)=O)C(=O)N[C@@H](Cc1c[nH]c2ccccc12)C(=O)N[C@@H](CC(C)C)C(=O)N[C@H](C(=O)N[C@@H](CCCNC(=N)N)C(=O)N[C@@H](CCC(N)=O)C(=O)N[C@@H](CCCNC(=N)N)C(=O)N[C@@H](Cc1ccccc1)C(N)=O)[C@@H](C)O) [Compound A27]
6 | 10.4 -Log(EC50, M) | 8.9 -Log(EC50, M) | PKPEAPGK([γGlu-γGlu-C19 diacid])DASPEEWDRYYKDLRHYLNWLTRQRF-NH2 [Compound A33]
7 | 10.2 -Log(EC50, M) | 8.7 -Log(EC50, M) | PKPEAPGK([γGlu-dpeg-dpeg-γGlu-C20 diacid])DASPEEWNRYYADLRHYLNWLTRQRF-NH2 (N-terminus assumed; SMILES CC(C)C[C@H](NC(=O)[C@H](CC(=O)O)NC(=O)[C@H](C)NC(=O)[C@H](Cc1ccc(O)cc1)NC(=O)[C@H](Cc1ccc(O)cc1)NC(=O)[C@H](CCCNC(=N)N)NC(=O)[C@H](CC(N)=O)NC(=O)[C@H](Cc1c[nH]c2ccccc12)NC(=O)[C@H](CCC(=O)O)NC(=O)[C@H](CCC(=O)O)NC(=O)[C@@H]1CCCN1C(=O)[C@H](CO)NC(=O)[C@H](C)NC(=O)[C@H](CC(=O)O)NC(=O)[C@H](CCCCNC(=O)CC[C@H](NC(=O)COCCOCNC(=O)COCCOCNC(=O)CC[C@H](NC(=O)CCCCCCCCCCCCCCCCCCC(=O)O)C(=O)O)C(=O)O)NC(=O)CNC(=O)[C@@H]1CCCN1C(=O)[C@H](C)NC(=O)[C@H](CCC(=O)O)NC(=O)[C@@H]1CCCN1C(=O)[C@H](CCCCN)NC(=O)[C@@H]1CCCN1)C(=O)N[C@@H](CCCNC(=N)N)C(=O)N[C@@H](Cc1c[nH]cn1)C(=O)N[C@@H](Cc1ccc(O)cc1)C(=O)N[C@@H](CC(C)C)C(=O)N[C@@H](CC(N)=O)C(=O)N[C@@H](Cc1c[nH]c2ccccc12)C(=O)N[C@@H](CC(C)C)C(=O)N[C@H](C(=O)N[C@@H](CCCNC(=N)N)C(=O)N[C@@H](CCC(N)=O)C(=O)N[C@@H](CCCNC(=N)N)C(=O)N[C@@H](Cc1ccccc1)C(N)=O)[C@@H](C)O) [Compound A17]
8 | 10.8 -Log(EC50, M) | 9 -Log(EC50, M) | PKPEAPGK([γGlu-γGlu-C18 diacid])DASPEEWDRYYKDLRHYLNWLTRQRF-NH2 [Compound A32]
9 | 10.3 -Log(EC50, M) | 9.3 -Log(EC50, M) | PKPEAPG[dK]([γGlu-dpeg-dpeg-γGlu-C20 diacid])DASPEEWNRYYADLRHYLNWLTRQRF-NH2 (N-terminus assumed; SMILES CC(C)C[C@H](NC(=O)[C@H](CC(=O)O)NC(=O)[C@H](C)NC(=O)[C@H](Cc1ccc(O)cc1)NC(=O)[C@H](Cc1ccc(O)cc1)NC(=O)[C@H](CCCNC(=N)N)NC(=O)[C@H](CC(N)=O)NC(=O)[C@H](Cc1c[nH]c2ccccc12)NC(=O)[C@H](CCC(=O)O)NC(=O)[C@H](CCC(=O)O)NC(=O)[C@@H]1CCCN1C(=O)[C@H](CO)NC(=O)[C@H](C)NC(=O)[C@H](CC(=O)O)NC(=O)[C@@H](CCCCNC(=O)CC[C@H](NC(=O)COCCOCNC(=O)COCCOCNC(=O)CC[C@H](NC(=O)CCCCCCCCCCCCCCCCCCC(=O)O)C(=O)O)C(=O)O)NC(=O)CNC(=O)[C@@H]1CCCN1C(=O)[C@H](C)NC(=O)[C@H](CCC(=O)O)NC(=O)[C@@H]1CCCN1C(=O)[C@H](CCCCN)NC(=O)[C@@H]1CCCN1)C(=O)N[C@@H](CCCNC(=N)N)C(=O)N[C@@H](Cc1c[nH]cn1)C(=O)N[C@@H](Cc1ccc(O)cc1)C(=O)N[C@@H](CC(C)C)C(=O)N[C@@H](CC(N)=O)C(=O)N[C@@H](Cc1c[nH]c2ccccc12)C(=O)N[C@@H](CC(C)C)C(=O)N[C@H](C(=O)N[C@@H](CCCNC(=N)N)C(=O)N[C@@H](CCC(N)=O)C(=O)N[C@@H](CCCNC(=N)N)C(=O)N[C@@H](Cc1ccccc1)C(N)=O)[C@@H](C)O) [Compound A18]

Source: patent publication US20250084142A1 (INTARCIA THERAPEUTICS, published 2025)
